Measured values published in article PMC1420652, “Purified Wnt5a Protein Activates or Inhibits β-Catenin–TCF Signaling Depending on Receptor Context” (PLoS Biology, 2006).

T1: purified Wnt5a protein (mouse) (mouse, UniProt P22725 62-380)
T1 construct: Wnt5a, mouse; The protein needs detergent to stay in solution; also called mWnt5a
T1 sequence (looked up): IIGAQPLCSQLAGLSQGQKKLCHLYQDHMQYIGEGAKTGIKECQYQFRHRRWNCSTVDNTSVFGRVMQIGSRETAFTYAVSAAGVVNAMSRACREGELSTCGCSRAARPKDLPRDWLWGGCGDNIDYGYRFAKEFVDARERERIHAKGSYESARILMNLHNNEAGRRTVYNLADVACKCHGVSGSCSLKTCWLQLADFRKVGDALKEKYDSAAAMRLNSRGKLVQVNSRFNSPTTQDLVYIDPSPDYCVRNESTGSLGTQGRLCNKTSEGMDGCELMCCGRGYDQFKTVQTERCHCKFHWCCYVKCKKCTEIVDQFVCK

B1: mRor2 CRD-IgG (Fc fusion)
chain: not shown
notes: source: 293 cells stably secreting the protein, purified from serum-free conditioned media (protein A column); not shown: immunoglobulin heavy chain domain (IgG), C-terminal, kept
B2: mRor2 NT CRD-IgG (Fc fusion)
chain: not shown
notes: signal peptide in the construct; source: 293 cells stably secreting the protein, purified from serum-free conditioned media (protein A column); not shown: immunoglobulin heavy chain domain (IgG), C-terminal, kept

Molecular target: T1, purified Wnt5a protein (mouse)
Test: pull-down; purified CRD-IgG proteins bound to protein A-Sepharose beads (4 h, 4 °C), incubated overnight at 4 °C with purified Wnt5a protein, washed 4 times with TNT buffer (50 mM Tris-HCl, 150 mM NaCl, 1% Triton X-100), Western blot
Conditions: both partners purified

Row | Binder | binding result
1 | B1 | binds
2 | B2 | binds
